Data reported in US20250043022A1 (JIANGSU HENGRUI PHARMACEUTICALS, published 2025).
Changes are numbered by the printed parent chain.

B1: hu15H3L1 (antibody, human IgG1, kappa, V domains shown)
VH: EFQLVQSGAEVKKPGASVKVSCKASGYSFTDHNMNWVRQAPGQRLEWMGLINPNYGTADYNQKFKGRVTITVDQSASTAYMELSSLRSEDTAVYYCARGSSLFAYWGQGTLVTVSS
VL: DIQMTQSPSSLSASVGDRVTITCKASQGVDTAVAWYQQKPGKVPKLLIYWASTRHTGVPSRFSGSGSGTDFTLTISSLQPEDVATYYCQQYSRYPLTFGQGTKLEIKR
B2: hu15H1L1 (antibody, human IgG1, kappa, V domains shown)
VH: B1 VH with S28T, V72R, Q74T
VL: B1 VL
B3: hu15H1L2 (antibody, human IgG1, kappa, V domains shown)
VH: B1 VH with S28T, V72R, Q74T
VL: B1 VL with V43S, S60D
B4: hu15H2L1 (antibody, human IgG1, kappa, V domains shown)
VH: B1 VH with V72R, Q74T
VL: B1 VL
B5: hu15H2L2 (antibody, human IgG1, kappa, V domains shown)
VH: B1 VH with V72R, Q74T
VL: B1 VL with V43S, S60D
B6: hu15H3L2 (antibody, human IgG1, kappa, V domains shown)
VH: B1 VH
VL: B1 VL with V43S, S60D
B7: hu15H4L1 (antibody, human IgG1, kappa, V domains shown)
VH: B1 VH with I70L, S77T
VL: B1 VL
B8: hu15H5L1 (antibody, human IgG1, kappa, V domains shown)
VH: B1 VH with M48I, V68A, I70L, S77T
VL: B1 VL
B9: hu15H5L2 (antibody, human IgG1, kappa, V domains shown)
VH: B1 VH with M48I, V68A, I70L, S77T
VL: B1 VL with V43S, S60D
B10: hu31H1L2 (antibody, human IgG1, kappa, V domains shown)
VH: EVQLVESGGGLVQPGGSLRLSCAASGFTFSDYYMAWVRQAPGKGLEWVASINYDGSSTYYLDSLKSRFTISRDNAKNSLYLQMNSLRAEDTAVYYCAGSDGYWAWFAYWGQGTLVTVSS
VL: DIQMTQSPSSLSASVGDRVTITCRASGNIHNYLAWYQQKPGKAPQLLVYNAETLADGVPSRFSGSGSGTDFTLTISSLQPEDFATYYCQHFWSTPPTFGGGTKVEIKR
B11: hu31H1L3 (antibody, human IgG1, kappa, V domains shown)
VH: B10 VH
VL: B10 VL with A43S, D70Q
B12: hu41H1L2 (antibody, human IgG1, kappa, V domains shown)
VH: EVQLVQSGAEVKKPGASVKVSCKASGYTFTSYGISWVRQAPGQGLEWMGEIFPRRGNTYYNEKFRGRVTMTTDKSTSTAYMELRSLRSDDTAVYYCARVFDGYYNYAMDYWGQGTTVTVSS
VL: DIQMTQSPSSLSASVGDRVTITCRASQDIGSSLNWLQQKPGKAIKRLIYATSSLDSGVPSRFSGSRSGTDYTLTISSLQPEDFATYYCLQYASSPYTFGGGTKVEIKR
B13: hu41H1L1 (antibody, human IgG1, kappa, V domains shown)
VH: B12 VH
VL: B12 VL with I44P, Y71F
B14: hu41H1L3 (antibody, human IgG1, kappa, V domains shown)
VH: B12 VH
VL: B12 VL with K42G, T69S
B15: hu41H2L1 (antibody, human IgG1, kappa, V domains shown)
VH: B12 VH with M70L, T72A
VL: B12 VL with I44P, Y71F
B16: hu41H2L3 (antibody, human IgG1, kappa, V domains shown)
VH: B12 VH with M70L, T72A
VL: B12 VL with K42G, T69S
B17: hu43H2L1 (antibody, human IgG1, kappa, V domains shown)
VH: EVQFVESGGGLVQPGGSLRLSCAASGFTFSNYWMNWVRQAPGKGLEWVAQVRLKSDNYATHYAESVKGRFTISREDAKNSAYLQMNSLRAEDTAVYYCSENYYGPAGPFDFWGQGTTVTVSS
VL: DIQMTQSPSSVSASVGDRVTITCKASQNVHTSVAWYQQKPGKSPKLLIYSASNRYSGVPSRFSGSGSGTDFTLTISSLQPEDFATYYCQQYSSYPLTFGQGTKLEIKR
B18: hu43H1L1 (antibody, human IgG1, kappa, V domains shown)
VH: B17 VH with E75D, D76N
VL: B17 VL
B19: hu43H3L1 (antibody, human IgG1, kappa, V domains shown)
VH: B17 VH with V37L
VL: B17 VL
B20: hu46H1L1 (antibody, human IgG1, kappa, V domains shown)
VH: EVQLVESGGGLVKPGGSLRLSCAASGFTFSNYGMSWVRQAPGKGLEWVSTIGSGGGYTYYSDSVKGRFTISRDNAKNSLYLQMNSLRAEDTAVYYCARHPQIGYWGQGTLVTVSS
VL: B17 VL with V11L, N28S, H30G, S32A, S43A, N53S, S56T, Q89H, Q100G, L104V
B21: hu46H1L2 (antibody, human IgG1, kappa, V domains shown)
VH: B20 VH
VL: DIQMTQSPSSLSASVGDRVTITCKASQSVGTAVAWYQQKPGKAPKLLIYSASSRYTGVPSRFSGSGSGTDFTLTISSLQPEDFADYFCHQYSSYPLTFGGGTKVEIKR
B22: hu46H1L3 (antibody, human IgG1, kappa, V domains shown)
VH: B20 VH
VL: B21 VL with S60D
B23: hu46H2L1 (antibody, human IgG1, kappa, V domains shown)
VH: B20 VH with A97V
VL: B21 VL with D85T, F87Y
B24: hu46H2L3 (antibody, human IgG1, kappa, V domains shown)
VH: B20 VH with A97V
VL: B21 VL with S60D
B25: hu46H3L1 (antibody, human IgG1, kappa, V domains shown)
VH: B20 VH with L45I, E46K, A97V
VL: B21 VL with D85T, F87Y
B26: hu46H3L2 (antibody, human IgG1, kappa, V domains shown)
VH: B20 VH with L45I, E46K, A97V
VL: B21 VL
B27: hu46H3L3 (antibody, human IgG1, kappa, V domains shown)
VH: B20 VH with L45I, E46K, A97V
VL: B21 VL with S60D
B28: hu46H4L1 (antibody, human IgG1, kappa, V domains shown)
VH: B20 VH with L45I, E46K, S49A, A97V
VL: B21 VL with D85T, F87Y
B29: hu46H4L2 (antibody, human IgG1, kappa, V domains shown)
VH: B20 VH with L45I, E46K, S49A, A97V
VL: B21 VL
B30: hu50H1L1 (antibody, human IgG1, kappa)
heavy: not shown
light: DIVMTQSPLSLPVTPGEPASISCRSSQSILHSNGNTYLEWYLQKPGQSPQLLIYRVSNRFSGVPDRFSGSGSGTDFTLKISRVEAEDVGVYYCFQGLHVPPTFGQGTKLEIKRTVAAPSVFIFPPSDEQLKSGTASVVCLLNNFYPREAKVQWKVDNALQSGNSQESVTEQDSKDSTYSLSSTLTLSKADYEKHKVYACEVTHQGLSSPVTKSFNRGEC
B31: hu50H1L3 (antibody, human IgG1, kappa, V domains shown)
VH: EVQLVQSGAEVKKPGASVKVSCKASGFTFTNYGISWVRQAPGQGLEWMGEIYPRSGNTYYNTNFKGRVTMTTDKSTSTAYMELRSLRSEDTAVYYCARNPFTTVVEGFAFWGQGTLVTVSS
VL: DIVMTQSPLSLPVTPGEPASISCRSSQSILHSYGNTYLEWYLQKPGQSPQLLIYRVSNRFSGVPDRFSGSGSGTDFTLKISRVEAEDVGVYYCFQGLHVPPTFGQGTKLEIKR
B32: hu50H2L1 (antibody, human IgG1, kappa)
heavy: not shown
light: B30 light
B33: hu50H2L2 (antibody, human IgG1, kappa)
heavy: not shown
light: B30 light with I2V, V3F
B34: hu50H2L3 (antibody, human IgG1, kappa, V domains shown)
VH: B31 VH with M70L, T72A
VL: B31 VL
B35: hu71H3L1 (antibody, human IgG1, kappa)
heavy: not shown
light: DIVMTQTPLSLPVTPGEPASISCRSSQSLVHSYGNTYLHWYLQKPGQSPQLLIYKVSNRFSGVPDRFSGSGSGTDFTLKISRVEAEDVGVYYCSQTTHVPWTFGGGTKVEIKRTVAAPSVFIFPPSDEQLKSGTASVVCLLNNFYPREAKVQWKVDNALQSGNSQESVTEQDSKDSTYSLSSTLTLSKADYEKHKVYACEVTHQGLSSPVTKSFNRGEC
B36: hu71H1L1 (antibody, human IgG1, kappa)
heavy: not shown
light: B35 light

Target: T1, human PSMA on cells (Cho-hPSMA, CHO-K1 cells overexpressing full-length human PSMA) (human, UniProt Q04609 1-750)
T1 construct: whole, on cells; also called cell surface PSMA; PSMA-expressing Lncap cells
Assay: cell ELISA (OD450), Cho-hPSMA cells
Method: Experiment 2: Cells were cultured and inoculated onto a cell plate using the same method as in Experiment 1. The antibodies were serially diluted, and the antibody solutions were added to the cell plate at 100 μL/well. The plate was incubated at 4° C. for 1 h and then washed. An HRP-Goat Anti-human IgG (H+L) secondary antibody dilution (1:8000) was added to the cell plate at 100 μL/well, and the plate was incubated at 4° C. for 1 h and then washed by centrifugation. After color development with TMB, the reaction was stopped with 0.1 M sulfuric acid, and OD450 values were measured.

T1 sequence (Q04609 whole entry): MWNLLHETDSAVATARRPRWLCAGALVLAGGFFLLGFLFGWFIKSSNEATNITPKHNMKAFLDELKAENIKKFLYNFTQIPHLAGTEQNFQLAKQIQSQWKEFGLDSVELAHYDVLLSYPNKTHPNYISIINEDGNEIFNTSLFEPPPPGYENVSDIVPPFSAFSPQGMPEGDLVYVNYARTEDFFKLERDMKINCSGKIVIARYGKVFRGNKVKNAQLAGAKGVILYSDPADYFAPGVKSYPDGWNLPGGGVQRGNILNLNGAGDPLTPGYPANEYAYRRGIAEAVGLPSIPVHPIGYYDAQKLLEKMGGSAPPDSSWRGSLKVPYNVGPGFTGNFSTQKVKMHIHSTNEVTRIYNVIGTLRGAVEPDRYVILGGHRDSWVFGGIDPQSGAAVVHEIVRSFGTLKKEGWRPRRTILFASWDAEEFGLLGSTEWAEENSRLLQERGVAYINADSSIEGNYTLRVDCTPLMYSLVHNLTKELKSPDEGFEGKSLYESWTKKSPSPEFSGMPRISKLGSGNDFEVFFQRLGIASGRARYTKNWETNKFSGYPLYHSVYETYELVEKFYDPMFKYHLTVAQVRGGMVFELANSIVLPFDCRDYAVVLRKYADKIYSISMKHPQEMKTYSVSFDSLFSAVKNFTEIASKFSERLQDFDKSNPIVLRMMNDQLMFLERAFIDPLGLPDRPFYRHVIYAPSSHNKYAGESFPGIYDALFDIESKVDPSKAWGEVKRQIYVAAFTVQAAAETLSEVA

Row | Binder | EC50 [µg/mL]
1 | B1 | 0.0731
2 | B2 | 0.0683
3 | B3 | 0.075
4 | B4 | 0.0871
5 | B5 | 0.0874
6 | B6 | 0.0821
7 | B7 | 0.069
8 | B8 | 0.0847
9 | B9 | 0.0818
10 | B10 | 0.12
11 | B11 | 0.124
12 | B12 | 0.982
13 | B13 | 1.08
14 | B14 | 0.985
15 | B15 | 1.22
16 | B16 | 1.21
17 | B17 | 6.17
18 | B18 | 6.22

Row | Binder | EC50 [µg/mL]
19 | B19 | 2.83
20 | B20 | 0.136
21 | B21 | 0.0813
22 | B22 | 0.123
23 | B23 | 0.0788
24 | B24 | 0.0805
25 | B25 | 0.0597
26 | B26 | 0.0617
27 | B27 | 0.0912
28 | B28 | 0.0843
29 | B29 | 0.079
30 | B30 | 0.0679
31 | B31 | 0.108
32 | B32 | 0.0487
33 | B33 | 0.0477
34 | B34 | 0.104
35 | B35 | 0.086
36 | B36 | 0.12
